This is an account of results in article PMC2532734.

What all share (assay): NMR 15N-HSQC titration
Data set [1] has as its target T1, KSRP KH3 (UniProt Q92945 323-418).
T1 sequence: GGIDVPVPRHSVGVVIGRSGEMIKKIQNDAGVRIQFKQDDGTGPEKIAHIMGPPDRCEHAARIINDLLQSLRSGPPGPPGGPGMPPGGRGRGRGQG

In data set [2] the target is T1, KSRP KH3. This is another data set of the same source.
For the next data set, the target named is T2, KSRP KH4 (UniProt Q92945 423-525).
T2 sequence: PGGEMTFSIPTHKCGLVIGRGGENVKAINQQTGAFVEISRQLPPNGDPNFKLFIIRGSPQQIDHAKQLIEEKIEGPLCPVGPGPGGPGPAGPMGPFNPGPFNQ

A further data set concerns the target T3, KSRP KH2 (UniProt Q92945 233-305).
T3 sequence: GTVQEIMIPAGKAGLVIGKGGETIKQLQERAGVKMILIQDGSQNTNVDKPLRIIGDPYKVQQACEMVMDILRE

In a further data set the target is T4, KSRP KH1 (UniProt Q92945 130-218).
T4 sequence: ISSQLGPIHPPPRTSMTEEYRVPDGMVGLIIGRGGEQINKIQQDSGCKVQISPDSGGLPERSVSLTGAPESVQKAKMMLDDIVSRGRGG

Data set [3] has as its target T1, KSRP KH3. This is another data set of the same source.

A word on the Kd: it is the concentration at which binding is half-saturated. High values mean weaker binding, low ones tighter binding. In turn, UAGGUU (ssRNA) [UAGGUU (UAGGUA in Fig 4b legend)] yielded a Kd with KSRP KH3 [1] of 6 ± 2 µM.

In the data set with KSRP KH3 [1], UAGUAU (ssRNA) gave a Kd of 26 ± 5 µM. For UAUUAU (ssRNA), the binding signal with KSRP KH3 [2] was about 100 fold weaker than UGGGU.

With UCCCC (ssRNA) [uCCCC], the binding result with KSRP KH4, with KSRP KH2, with KSRP KH1 and in the data set with KSRP KH3 [3] was “no binding” throughout.
